The values below come from patent publication US8530213B2, “Compositions and methods for using NADH oxidases” (Georgia Tech Research Corporation, priority 2009, dated 2013).

Numbering of substitutions follows the chain as printed. In names and notes the source's numbering stands.

The target of data set [1] is T1, NOX5 (Lactiplantibacillus plantarum, UniProt F9UUC2). As to conditions: H2O2 up to 200 μM, 30 minutes incubation. The protocol: (§1) Inhibition effects of NAD^+ and H2O2 were measured by incubating the enzyme with possible inhibitors for 30 minutes before the assay. For NAD^+, 0.2, 0.3, 0.4 and 0.6 mM were chosen and for H2O2, 25, 50, 100 and 200 μM were investigated.
The effect of H2O2 was studied with a concentration range up to 200 μM, which would be the total amount produced from a standard assay if the enzyme was a hydrogen peroxide producing NADPH oxidase.

Data set [2] has as its target T1, NOX5. The experiment in a line: NAD+ product inhibition of NOX5. The class given is biochemical, Lactobacillus plantarum. The protocol: as §1
Possible product inhibitory effects were investigated by incubating the enzyme with different concentrations of NAD^+. […] (FIG. 6).

Data set [3] is described as follows: NOX5 mutants assayed at the cell lysate level, NADH activity. The class given is biochemical. The protocol:
(§2) Standard assays were performed at 25° C. in 100 mM TEA buffer (pH 7.5) with 5 mM DTT in cuvettes with either a 1 cm or 1 mm path length, depending on the concentration of substrate. Initial activity was measured by following the absorbance change using a Beckman Coulter DU 800 UV/Vis spectrophotometer at 340 nm. Activity of the enzyme was calculated using an extinction coefficient of NAD(P)H, ε, as 6.22 mM^−1 cm^−1. Unless otherwise noted, a substrate concentration of 0.2 mM NADPH was used for assays. 1 unit (U) of activity is defined as […].
(§3) Single mutations were done on residues G178 and L179 into K, R and K, R, H respectively, and double mutations were also investigated with different combinations of the single mutations. The mutation of G178H was excluded due to the fact that the enzyme would then have two histidines next to each other, creating steric hindrance in the binding pocket. The resulting mutants were expressed on small scale and assayed at the cell lysate level.

A short description of data set [4]: NOX5 mutants assayed at the cell lysate level, NADPH activity. The format is biochemical. The method, then:
as §2, §3

Data set [5] can be described thus: Kinetic parameters of purified NADH oxidases, substrate NADH. The class given is biochemical. The method, then: as §2
[…] This was conducted with an excess of oxygen present in the system. The reaction was initiated by mixing two separate 2× solutions of each the substrate and enzyme. The specific activity was measured, and the kinetic parameters were calculated from that data.
The data was fitted with four different models: non-linear Michaelis-Menten, Lineweaver-Burk, Eadie-Hofstee and Hanes. Through non-linear fitting, kcat and KM of the wild type were measured to be 211.6 s^−1 and 50.2 μM, respectively with an R^2 of 0.998. (FIG. 5).

Data set [6] in a line: Kinetic parameters of purified NADH oxidases, substrate NADPH. The class given is biochemical. As to conditions: purified enzyme, excess of oxygen. The method, then:
as §2
Depending on the enzyme, a substrate concentration range from 1.5 μM up to 984 μM was investigated to determine the kcat and KM of NADPH. This was conducted with an excess of oxygen present in the system. The reaction was initiated by mixing two separate 2× solutions of each the substrate and enzyme. The specific activity was measured, and the kinetic parameters were calculated from that data.

The nature of data set [7]: Total turnover number (TTN), NADH. The class given is biochemical. Details: key: TTN = change in NAD(P)H concentration / amount of enzyme. As to conditions: for TTN with DTT, NADH: 5 mM DTT, 25° C.; for TTN, NADH: no reducing agents. The method, then: (§4) Standard kinetic assays were performed with small amounts of enzyme. Assays were carried out for two to three hours until there was no more enzymatic conversion of the substrate.
Total turnover number (TTN) is a measurement of catalyst productivity. For biocatalysts, TTN is defined as the total amount of product produced over the lifetime of an enzyme. […] […] (data not shown).
(§5) This experiment was repeated to see if the presence of reducing agents had any effect on the total turnover number. The stock solution of enzyme was dialyzed against 250 mL of 10 mM Tris-HCl (pH 7.5) for two hours. The solution was then exchanged and dialyzed for an additional 2 hours. The TTN was then measured with the dialyzed enzyme with and without reducing agents. DTT and β-mercaptoethanol (β-ME) were used at a concentration of 5 mM. The TTN for the sample with no reducing agents, DTT and β-ME were 128,000, 168,000 and 107,000, respectively.

Data set [8] can be described thus: Total turnover number (TTN), NADPH. The class given is biochemical. The method, then: as §4
Total turnover number (TTN) is a measurement of catalyst productivity. For biocatalysts, TTN is defined as the total amount of product produced over the lifetime of an enzyme. Calculations of TTN were performed by dividing the change of NADPH concentration by the amount of enzyme that was used for each assay. […] (data not shown).
as §5

The mark [9] stands for this setting: purified enzyme, excess of oxygen.

T1 sequence (F9UUC2 entry or part of it): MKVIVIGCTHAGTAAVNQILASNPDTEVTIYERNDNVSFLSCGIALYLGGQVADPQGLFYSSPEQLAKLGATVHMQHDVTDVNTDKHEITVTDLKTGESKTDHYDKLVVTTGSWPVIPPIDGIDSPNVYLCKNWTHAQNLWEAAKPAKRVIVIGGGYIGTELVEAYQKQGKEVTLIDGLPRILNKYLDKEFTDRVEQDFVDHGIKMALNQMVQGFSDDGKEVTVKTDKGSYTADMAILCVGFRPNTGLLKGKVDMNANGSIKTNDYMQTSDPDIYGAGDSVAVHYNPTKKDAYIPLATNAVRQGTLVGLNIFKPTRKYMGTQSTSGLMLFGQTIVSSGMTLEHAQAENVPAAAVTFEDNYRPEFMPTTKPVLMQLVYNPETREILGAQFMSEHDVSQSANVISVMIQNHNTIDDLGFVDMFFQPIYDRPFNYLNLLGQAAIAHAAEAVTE

With `OO` [H2O2, hydrogen peroxide], the “change in the initial specific activity of the enzyme” value in data set [1] was “no change”.
Consider `NC(=O)c1ccc[n+]([C@@H]2O[C@H](COP(=O)([O-])OP(=O)(O)OC[C@H]3O[C@@H](n4cnc5c(N)ncnc54)[C@H](O)[C@@H]3O)[C@@H](O)[C@H]2O)c1` [NAD^+], for which the Ki (in general, a dissociation constant, usually derived from enzyme kinetics or from competition with a known ligand) in data set [2] (0.2, 0.3, 0.4 and 0.6 mM NAD^+, 30 minutes incubation) amounted to 289 µM. The inhibition pattern result in data set [2] (Hanes-Woolf plot) was “non-competitive”.

B1: L179R: NADH oxidase derived from Lactobacillus plantarum, L179R mutant (protein, listed as Lactobacillus plantarum)
chain: MKVIVIGCTHAGTAAVNQILASNPDTEVTIYERNDNVSFLSCGIALYLGGQVADPQGLFYSSPEQLAKLGATVHMQHDVTDVNTDKHEITVTDLKTGESKTDHYDKLVVTTGSWPVIPPIDGIDSPNVYLCKNWTHAQNLWEAAKPAKRVIVIGGGYIGTELVEAYQKQGKEVTLIDGRPRILNKYLDKEFTDRVEQDFVDHGIKMALNQMVQGFSDDGKEVTVKTDKGSYTADMAILCVGFRPNTGLLKGKVDMNANGSIKTNDYMQTSDPDIYGAGDSVAVHYNPTKKDAYIPLATNAVRQGTLVGLNIFKPTRKYMGTQSTSGLMLFGQTIVSSGMTLEHAQAENVPAAAVTFEDNYRPEFMPTTKPVLMQLVYNPETREILGAQFMSEHDVSQSANVISVMIQNHNTIDDLGFVDMFFQPIYDRPFNYLNLLGQAAIAHAAEAVTE
Regarding B1, the NADH activity in data set [3] is listed as 7.32 U/mg. Besides, the NADPH activity in data set [4] was 1.76 U/mg. Besides, the “improvement of kcat/KM (NADH) over the wild-type” value in data set [5] was “more than 4 fold”. For the same molecule, in data set [5] (setting [9]), the Km (in general, the concentration of substrate that gives half-maximal velocity) came to 6.56 µM and the “kcat, NADH” value is 122.0 s⁻¹. Moreover, in data set [6], the Michaelis constant (Km) turned out to be 490 µM and the “kcat, NADPH” value stood at 146.4 s⁻¹. Also, in data set [7], the “TTN with DTT, NADH” value is recorded as 149,000 and the “TTN, NADH” value was 181,000.

B2: G178R: NADH oxidase derived from Lactobacillus plantarum, G178R mutant (protein, listed as Lactobacillus plantarum)
chain: B1 chain with G178K, R179L
In the case of B2, the NADH activity in data set [3] is on record as 1.51 U/mg. Moreover, the NADPH activity in data set [4] was 0.23 U/mg.

B3: L179K: NADH oxidase derived from Lactobacillus plantarum, L179K mutant (protein, listed as Lactobacillus plantarum)
chain: B1 chain with R179K
For the molecule B3, the NADH activity in data set [3] turned out to be 5.14 U/mg. Moreover, the NADPH activity in data set [4] was determined as 1.03 U/mg.

B4: G178R/L179R: NADH oxidase derived from Lactobacillus plantarum, G178R/L179R mutant (protein, listed as Lactobacillus plantarum)
chain: B1 chain with G178R
On to B4, for which the NADH activity in data set [3] was found to be 2.64 U/mg. In addition, in data set [4], the NADPH activity is given as 6.00 U/mg. The “kcat, NADH” value in data set [5] (setting [9]) came to 34.0 s⁻¹. In data set [6], the Km is 9.76 µM and the “kcat, NADPH” value came to 114.1 s⁻¹. Moreover, in data set [7], the “TTN with DTT, NADH” value was 128,000 and the “TTN, NADH” value is listed as 108,000. Further, the “TTN, NADPH” value in data set [8] (no reducing agents) is on record as 105,000. Also, the “TTN with DTT, NADPH” value in data set [8] (with DTT) is reported as 118,000.

B5: G178R/L179K: NADH oxidase derived from Lactobacillus plantarum, G178R/L179K mutant (protein, listed as Lactobacillus plantarum)
chain: B1 chain with G178R, R179K
In the case of B5, the NADH activity in data set [3] stood at 0.94 U/mg. Further, the NADPH activity in data set [4] was 3.56 U/mg.

B6: G178R/L179H: NADH oxidase derived from Lactobacillus plantarum, G178R/L179H mutant (protein, listed as Lactobacillus plantarum)
chain: B1 chain with G178R, R179H
As for B6, in data set [3], the NADH activity is reported as 0.64 U/mg. In addition, the NADPH activity in data set [4] is recorded as 0.52 U/mg.

B7: G178K: NADH oxidase derived from Lactobacillus plantarum, G178K mutant (protein, listed as Lactobacillus plantarum)
chain: B1 chain with G178K, R179L
With B7, the NADH activity in data set [3] was determined as 3.92 U/mg. In data set [4], the NADPH activity was found to be 0.46 U/mg.

B8: L. lactis NOX2: NADH oxidase from Lactococcus lactis, comparison enzyme (protein, UniProt A2RIB7 1-446, looked up)
NADH oxidase: MKIVVIGTNHAGIATANTLLEQYPGHEIVMIDRNSNMSYLGCGTAIWVGRQIEKPDELFYAKAEDFEAKGVKILTETEVSEIDFANKKVYAKTKSDDEIIEAYDKLVLATGSRPIIPNLPGKDLKGIHFLKLFQEGQAIDAEFAKEKVKRIAVIGAGYIGTEIAEAAKRRGKEVLLFDAENTSLASYYDEEFAKGMDENLAQHGIELHFGELAKEFKANEEGYVSQIVTNKATYDVDLVINCIGFTANSALASDKLATFKNGAIKVDKHQQSSDPDVYAVGDVATIYSNALQDFTYIALASNAVRSGIVAGHNIGGKELESVGVQGSNGISIFGYNMTSTGLSVKAAKKLGLEVSFSDFEDKQKAWFLHENNDSVKIRIVYETKSRRIIGAQLASKSEIIAGNINMFSLAIQEKKTIDELALLDLFFLPHFNSPYNYMTVAALNAK
Turning to B8, in data set [7], the “TTN with DTT, NADH” value is given as 78,480 and the “TTN, NADH” value is listed as 38,740.
